± gives the standard deviation of the averaged measurements.

This is an account of results in the supplement of paper PMC11246515.

This data set is described as follows: total protein half-life in vivo (active degradation + dilution); higher = more stable protein.
Where [1] appears, read: E. coli NCM3722 delta-clpP delta-lon delta-hslV, growth: N-lim chemostat, doubling time 6 h.
[2] abbreviates: E. coli NCM3722 delta-clpP, growth: N-lim chemostat, doubling time 6 h.
The mark [3] stands for this setting: E. coli NCM3722 delta-hslV, growth: N-lim chemostat, doubling time 6 h.
The mark [4] stands for this setting: E. coli NCM3722 delta-lon, growth: N-lim chemostat, doubling time 6 h.
Setting [5] is: E. coli NCM3722 delta-smpB, growth: N-lim chemostat, doubling time 6 h.
Setting [6] is: wild type E. coli NCM3722, growth: C-lim chemostat, doubling time 6 h.
Setting [7] is: wild type E. coli NCM3722, growth: C-lim chemostat, doubling time 12 h.
Where [8] appears, read: wild type E. coli NCM3722, growth: N-lim chemostat, doubling time 6 h.
The mark [9] stands for this setting: wild type E. coli NCM3722, growth: N-lim chemostat, doubling time 12 h.
Where [10] appears, read: wild type E. coli NCM3722, growth: P-lim chemostat, doubling time 6 h.
The mark [11] stands for this setting: wild type E. coli NCM3722, growth: P-lim chemostat, doubling time 12 h.
[12] abbreviates: wild type E. coli NCM3722, growth: C-lim chemostat, doubling time 3 h.

Sequence of P0ABR5 (chain, as listed by the source): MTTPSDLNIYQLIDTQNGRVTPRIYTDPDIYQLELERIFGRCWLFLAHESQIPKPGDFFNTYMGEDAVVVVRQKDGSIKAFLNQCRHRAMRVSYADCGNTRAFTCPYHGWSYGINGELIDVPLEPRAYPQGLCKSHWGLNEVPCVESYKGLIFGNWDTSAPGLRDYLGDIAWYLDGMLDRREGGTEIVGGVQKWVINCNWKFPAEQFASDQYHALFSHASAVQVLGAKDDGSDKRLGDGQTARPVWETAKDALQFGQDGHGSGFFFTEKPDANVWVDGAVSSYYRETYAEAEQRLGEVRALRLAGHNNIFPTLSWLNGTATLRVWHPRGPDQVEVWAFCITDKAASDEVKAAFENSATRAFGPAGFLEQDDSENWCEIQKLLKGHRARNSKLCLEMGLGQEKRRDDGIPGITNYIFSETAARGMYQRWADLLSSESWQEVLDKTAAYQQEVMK

With “MAAINTKVKKAVIPVAGLGTRMLPATKAIPKEMLPLVDKPLIQYVVNECIAAGITEIVLVTHSSKNSIENHFDTSFELEAMLEKRVKRQLLDEVQSICPPHVTIMQVRQGLAKGLGHAVLCAHPVVGDEPVAVILPDVILDEYESDLSQDNLAEMIRRFDETGHSQIMVEPVADVTAYGVVDCKGVELAPGESVPMVGVVEKPKADVAPSNLAIVGRYVLSADIWPLLAKTPPGAGDEIQLTDAIDMLIEKETVEAYHMKGKSHDCGNKLGYMQAFVEYGIRHNTLGTEFKAWLEEEMGIKK [P0AEP3]”, the “total protein half-life in vivo” value reads like this: under setting [1], 4.77 ± 0.41 h; under setting [2], 4.87 ± 0.81 h; under setting [3], 4.91 ± 0.62 h; under setting [4], 5.41 ± 0.14 h; under setting [5], 4.728 ± 0.0092 h; under setting [6], 5.71 ± 0.23 h. Also, the “total protein half-life in vivo” value by setting is: under setting [7], 10.8 ± 1.1 h; under setting [8], 4.65 ± 0.13 h; under setting [9], 7.63 ± 0.25 h; under setting [10], 5.72 ± 0.074 h; under setting [11], 11.6 ± 0.14 h.

Consider “MSNWPYPRIVAHRGGGKLAPENTLASIDVGAKYGHKMIEFDAKLSKDGEIFLLHDDNLERTSNGWGVAGELNWQDLLRVDAGSWYSKMFKGEPLPLLSQVAERCREHGMMANIEIKPTTGTGPLTGKMVALAARELWAGMTPPLLSSFEIDALEAAQQAAPELPRGLLLDEWRDDWRELTARLGCVSIHLNHKLLNKARVMQLKDAGLRILVYTVNKPQRAAELLRWGVDCICTDAIDVIGPNFTAQ”, for which the “total protein half-life in vivo” value was 4.77 ± 0.94 h under setting [1]; 3.75 ± 0.46 h under setting [2]; 3.65 ± 0.043 h under setting [3]; 4.1 ± 0.021 h under setting [4]; 3.72 ± 0.12 h under setting [5]; 3.33 ± 0.72 h under setting [12]. Also, the “total protein half-life in vivo” value came to 5.491 ± 0.049 h under setting [6]; 9.38 ± 0.43 h under setting [7]; 3.87 ± 0.31 h under setting [8]; 6.08 ± 0.18 h under setting [9]; 5.07 ± 0.11 h under setting [10]; 9.88 ± 0.3 h under setting [11].

For “MENIMNNPVIGVVMCRNRLKGHATQTLQEKYLNAIIHAGGLPIALPHALAEPSLLEQLLPKLDGIYLPGSPSNVQPHLYGENGDEPDADPGRDLLSMAIINAALERRIPIFAICRGLQELVVATGGSLHRKLCEQPELLEHREDPELPVEQQYAPSHEVQVEEGGLLSALLPECSNFWVNSLHGQGAKVVSPRLRVEARSPDGLVEAVSVINHPFALGVQWHPEWNSSEYALSRILFEGFITACQHHIAEKQRL”, the “total protein half-life in vivo” value under setting [2] was 2.93 h, the “total protein half-life in vivo” value under setting [12] stood at 2.64 h, the “total protein half-life in vivo” value under setting [7] amounted to 10.5 h and the “total protein half-life in vivo” value under setting [11] was found to be 10.6 ± 0.45 h.

P0ABR5: the “total protein half-life in vivo” value was 6.36 ± 1.3 h under setting [1]; 1.02 h under setting [12]; 2.09 h under setting [6]; 3.87 ± 2.6 h under setting [7]; 1.661 ± 0.003 h under setting [10]; 2.48 ± 0.059 h under setting [11].

For “MTATAQQLEYLKNSIKSIQDYPKPGILFRDVTSLLEDPKAYALSIDLLVERYKNAGITKVVGTEARGFLFGAPVALGLGVGFVPVRKPGKLPRETISETYDLEYGTDQLEIHVDAIKPGDKVLVVDDLLATGGTIEATVKLIRRLGGEVADAAFIINLFDLGGEQRLEKQGITSYSLVPFPGH”, the “total protein half-life in vivo” value was determined as 4.03 ± 0.92 h under setting [2]; 4.32 ± 0.47 h under setting [3]; 4.33 ± 0.17 h under setting [4]; 3.58 ± 0.46 h under setting [5]; 4.57 ± 0.87 h under setting [6]; 8.09 ± 0.39 h under setting [7]. Further, the “total protein half-life in vivo” value is, setting by setting: under setting [8], 5.06 ± 1 h; under setting [9], 6.92 ± 0.095 h; under setting [10], 5.1 ± 0.18 h; under setting [11], 10.9 ± 0.8 h.

As to “MKNIIRTPETHPLTWRLRDDKQPVWLDEYRSKNGYEGARKALTGLSPDEIVNQVKDAGLKGRGGAGFSTGLKWSLMPKDESMNIRYLLCNADEMEPGTYKDRLLMEQLPHLLVEGMLISAFALKAYRGYIFLRGEYIEAAVNLRRAIAEATEAGLLGKNIMGTGFDFELFVHTGAGRYICGEETALINSLEGRRANPRSKPPFPATSGAWGKPTCVNNVETLCNVPAILANGVEWYQNISKSKDAGTKLMGFSGRVKNPGLWELPFGTTAREILEDYAGGMRDGLKFKAWQPGGAGTDFLTEAHLDLPMEFESIGKAGSRLGTALAMAVDHEINMVSLVRNLEEFFARESCGWCTPCRDGLPWSVKILRALERGEGQPGDIETLEQLCRFLGPGKTFCAHAPGAVEPLQSAIKYFREEFEAGIKQPFSNTHLINGIQPNLLKERW”, the “total protein half-life in vivo” value runs as follows: under setting [1], 5.67 ± 0.18 h; under setting [2], 5.27 ± 0.43 h; under setting [3], 6.1 ± 0.97 h; under setting [4], 5.74 ± 0.13 h; under setting [5], 5.48 ± 0.17 h; under setting [12], 2.73 ± 0.23 h. The “total protein half-life in vivo” value reads like this: under setting [6], 5.63 ± 0.092 h; under setting [7], 9.99 ± 0.41 h; under setting [8], 5.44 ± 0.24 h; under setting [9], 9.884 ± 0.082 h; under setting [10], 5.251 ± 0.0079 h; under setting [11], 10.4 ± 0.9 h.
